Assay: yeast display, Sf9 membrane polyspecificity reagent, FACS + sequencing; frameworks hold sequencing errors
Outline: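 Genes from sorted yeast were amplified by colony PCR, read by MiSeq 2 × 250 sequencing and filtered on CDR length. These cells carried a synthetic nanobody library in Saccharomyces cerevisiae BJ5465 and were sorted by FACS into low and high (top ~1%) gates on anti-HA and streptavidin fluorescence. Polyreactivity is labelled according to the gate of origin.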

Sequence | polyreactivity (PSR sort gate)
QVQLVESGGGLVQAGGSLRLSCSSSGYTFYGYAMGWCRQAPGKERELVADISWSGTNTNYADSVKGRFTISRDNAKNTVYLQMNSLKQDDTAVYYGAAGYYYRGFYTEDYWGQGTQVTVSS | high polyreactivity
QVQLVESGGGLVQAGGSLRLSCAASGRIFLLYLMGWYRQAPGKERELVADITFSGGSTYYADSVKGRFTISRDNEKHTVYLQMNSLKPEDTAVYYCAARLFAAKYRYGYWGQGTQVTVSS | high polyreactivity
QVQLVESGGGLVQAGGSLRLSCAASGRIFRYYAMGWYRQAPGKERELVAAISYSTGGTYYADSVKGRFTISRDNAKNTVYLQMNSLKPEDTAVYYCATSAYQIYPRYGYWGQGTQVTVSS | high polyreactivity
QVQLVESGGGLVQAGGSLRLSCADSGRIFPQYTMGWYRQAPGKERELVAGISYGGVSTYYADSVKGRFTISRDNAKNTVYLHMNSLKPEDTAVYYCARPYGYRGYLRYYWGQGTQVTVSS | high polyreactivity
QVQLVESGGGLVQAGGSLRLSCAASGFIFHYNAMGWYRQAPGKERELVAAITSGDSTDYADSVKGRFTISRDNAKNTVYLQMNSLKPEDTAVYYCAAYHREGRRDDYWGQGTQVTVSS | low polyreactivity
QVQLVESGGGLVQAGGSLRLSCAASGSTFYPYGMGWYRPAPGKERELVAAITDSGGSTYYADSVKGRFTISRDNAKNTVYLQMNSLKPEDTAVYYCAKTYWYPWRASLWHEYDYWGQGTQVTVSS | low polyreactivity
QVQLVESGGGLVQAGGSLRLSCAASGSTFYDYVMGWYRQAPGKERELVAAISRTGASTYYADSVKGRFTISRDNAKNTVYLQMNSLKPEDTAVYYCAADSDTVRYYYWGQGTQVTVSS | high polyreactivity
QVQLVESGGGLVQAGGSLRLSCAATGRTFYQYAKGWSRQAPGKERELVAAISRRGGSTYYADSVKGRFTISRDNAKNTVYLQMNSLKPEDTAVYYCAAQRQYGKFDYWGQGTQVTVSS | high polyreactivity
QVQLVESGGGLVQAGGSLRLSCAASGSIFDYNAMGWYRQAPGKERELVAAISVNGGNTYYADSVKGRFTISRDNAKNTVYLQMNSLKPEDTAVYYCAADSYGGSKYDYWGQGTQVTVSS | low polyreactivity
QVQLVESGGGLVQAGGSLRLSCAASGCIFEIYAMGWYRQAPGKERELVAAITDSGGSTYYADSVKARFTISRDNANNTVYLQMNSLKPEDTAVYYCAAVGNSYETLLFYYWGQGTQVTVSS | low polyreactivity
QVQLVESGGGLVQAGGSLRLSCADSGSIFWYYAMGWSRQAPGKETELVADITSTGGSTYYADSVKGRFTISRDYAKNTVYFQMNSLKPEVSAVYYCAAEACYHWYYSLGYWGQGTQVTVSS | high polyreactivity
QDQLVESGGGLVQAGGSLRLSCAASGSTFVENAMGWYRQAPGKERELVAAISSSGDSTFYADSVKGRFTISRDNAKNTVYLQMNSLKPEDTAVYYCNTPLLKRTTRGRERNYWGQGTQVTVSS | low polyreactivity
QVQLVESGGGLVQAGGSLRISSAASGRTFVNYTMGWYRQAPGKERELVAAITSSGGSTYYADSVKGRFTISRDNAKNTVYLQMNSLKPEDTAVYYCASAIFDLSFWLYYWGQGTQVTVSS | low polyreactivity
QVQLVESGGGLVQAGGSLRLSCAASGSIVDYNAMGWYRQPPGKERELVAAISSGGSTYYADSVKGRFTISRDNAKNTVYLQMNSLKPEDTAVYYCAVKFWLVIQFDYWGQGTQVTVSS | low polyreactivity
QVQLVESGGGLVQAGGSLRLSCAASGLTFPIYAMGWYRQAPGKEREFVAVITTSGGSTYYSDSVKGRFTISRDNAKNTVYLQMNSLKPEDTAVYYCNARRIRHYYWGQGTQVTVSS | high polyreactivity
QDQLVESGGGLVQAGGSLRLSCAASGRIISANAMGWYRQAPGKERELVATISTGGGRTYYADSVKGRFTISRDNAKNTVYLQMNSLKPEDTAVYYCNATRNYARVRYYYWGQGTQVTVSS | high polyreactivity
QVQIVESGGGLVQAGGSLRLSCAASGSTFYRNAMGWYRQAPGKEREFVATISWNGGNTYYADSVKGRFTISRDNAKNTVYLQMNSVKPEDTAVYYCDARVKYRTSGGTVVSYDYWGQGTQVTVSS | high polyreactivity
QVQLVESGGGLVQAGGSLRLSCAASGYTLDGYAMGWYRQAPGKERDFVAAITFRGGGTYYADSVKGRFTISRDNSKNTVYLQMISLKPEDSAVYYCNADTYDPFPWGSDYWGQGTQVNVSS | high polyreactivity
QVHLVESAGGLVQAGGSLSLSCAASAITLYFNAMGWYRQAPGKEREWVAAISWSGDSTYYADSVKGRFTISRDNAKNTVYLQMNSLKPEDTAVYYCAADRYTYYHYAWYEYWGQGTQVTVSS | low polyreactivity
QVQLVESGGGLLQAGGSLRLSCAASGSIFRLNAMGWYRQAPGKERELVATINYSGDSTYYADSVKGRFTISRDNAKNTVYLQMNSLKPEDTAVYFCATDYGWYDYWGQGTQVTVSS | low polyreactivity
QGQLVESGGGLVQAGGSLRLSCPASGYIFWTNNMGWYRQSPGKERELVAAISYSGSSTYYADSVKGRFTISRDNAKNTVYLQMNSLKPEDTAVYYCAKKVRRYPTRYDSWGQGTQVTVSS | high polyreactivity

From the nanobody polyreactivity screen of Harvey et al. (2022)
